# Where a chain is given by its changes, count along the chain named.
# T1: human beta-Klotho (KLB) (human, UniProt Q86Z14 53-997)
# T1 construct: bought protein; also called human KLB
# T1 sequence (looked up): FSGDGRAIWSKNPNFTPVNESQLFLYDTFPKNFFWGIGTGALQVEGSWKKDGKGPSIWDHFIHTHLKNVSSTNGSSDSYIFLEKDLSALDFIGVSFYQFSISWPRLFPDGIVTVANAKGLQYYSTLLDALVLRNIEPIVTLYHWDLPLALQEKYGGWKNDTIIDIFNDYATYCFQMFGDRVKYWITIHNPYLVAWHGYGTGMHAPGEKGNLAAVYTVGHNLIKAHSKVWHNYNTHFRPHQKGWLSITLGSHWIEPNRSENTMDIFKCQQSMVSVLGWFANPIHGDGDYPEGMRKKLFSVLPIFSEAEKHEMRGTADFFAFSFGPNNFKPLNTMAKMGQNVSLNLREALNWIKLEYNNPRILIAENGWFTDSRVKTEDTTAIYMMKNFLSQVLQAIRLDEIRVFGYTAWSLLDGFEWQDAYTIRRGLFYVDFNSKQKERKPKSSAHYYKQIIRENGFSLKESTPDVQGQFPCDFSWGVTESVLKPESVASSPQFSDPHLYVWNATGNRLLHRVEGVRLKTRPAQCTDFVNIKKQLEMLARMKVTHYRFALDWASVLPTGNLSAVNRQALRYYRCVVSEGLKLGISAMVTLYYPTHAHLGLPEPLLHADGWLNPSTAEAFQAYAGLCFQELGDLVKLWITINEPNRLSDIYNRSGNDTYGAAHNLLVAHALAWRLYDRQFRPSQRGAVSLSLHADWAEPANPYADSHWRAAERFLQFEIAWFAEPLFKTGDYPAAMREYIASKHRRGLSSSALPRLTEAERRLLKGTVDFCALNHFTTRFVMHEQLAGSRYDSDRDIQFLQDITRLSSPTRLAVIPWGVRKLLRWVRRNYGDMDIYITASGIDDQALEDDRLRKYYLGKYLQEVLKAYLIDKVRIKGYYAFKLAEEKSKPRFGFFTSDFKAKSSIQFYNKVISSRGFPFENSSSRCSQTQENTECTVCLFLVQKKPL
# B1: Ab0188 (antibody, IgG4, V domains shown)
# VH: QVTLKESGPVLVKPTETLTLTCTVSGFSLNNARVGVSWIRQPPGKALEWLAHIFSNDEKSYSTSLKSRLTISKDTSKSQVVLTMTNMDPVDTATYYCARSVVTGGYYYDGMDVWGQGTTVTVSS
# VL: SYVLTQPPSVSVAPGQTARITCGGNNIGSESVHWYQQKPGQAPVLVVYYDSDRPSGIPERFSGSNSGNTATLTISRVEAGDEADYYCQVWDGNSDHVVFGGGTKLTVLG
# notes: IgG4 PE
# B2: Ab0196 (antibody, IgG4, V domains shown)
# VH: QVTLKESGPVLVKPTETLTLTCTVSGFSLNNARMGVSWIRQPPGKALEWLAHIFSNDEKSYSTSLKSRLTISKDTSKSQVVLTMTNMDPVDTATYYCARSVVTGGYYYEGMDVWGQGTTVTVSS
# VL: B1 VL with Y49D, D50E
# notes: IgG4 PE
# B3: Ab0226 (antibody, IgG4, V domains shown)
# VH: not shown
# VL: B1 VL with Y49T
# notes: IgG4 PE
# B4: Ab0204 (antibody, IgG4, V domains shown)
# VH: QVTLKESGPVLVKPTETLTLTCTVSGFSLNNARVGVSWIRQPPGKALEWLAHIFSNDEKSYSTSLKSRLTISKDTSKSQVVLTMTNMDPVDTATYYCARSVVTGGYYYEGMDVWGQGTTVTVSS
# VL: B1 VL with Y49D, D91T
# notes: IgG4 PE
# B5: Ab0225 (antibody, IgG4, V domains shown)
# VH: not shown
# VL: B1 VL with Y49E
# notes: IgG4 PE
# B6: Ab0223 (antibody, IgG4, V domains shown)
# VH: not shown
# VL: B1 VL with Y49S
# notes: IgG4 PE
# B7: Ab0234 (antibody, IgG4, V domains shown)
# VH: not shown
# VL: B1 VL with Y49D, N93S
# notes: IgG4 PE
# B8: Ab0215 (antibody, IgG4, V domains shown)
# VH: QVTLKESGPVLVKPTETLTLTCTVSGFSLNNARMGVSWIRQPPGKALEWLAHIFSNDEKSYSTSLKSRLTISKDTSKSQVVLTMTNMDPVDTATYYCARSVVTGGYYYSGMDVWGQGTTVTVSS
# VL: B1 VL with N25S, Y49D
# notes: IgG4 PE
# B9: Ab0217 (antibody, IgG4, V domains shown)
# VH: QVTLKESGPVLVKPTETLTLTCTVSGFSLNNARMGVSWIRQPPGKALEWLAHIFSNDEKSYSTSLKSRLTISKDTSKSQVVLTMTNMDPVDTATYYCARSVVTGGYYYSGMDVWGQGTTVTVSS
# VL: B1 VL with Y49D, D50E
# notes: IgG4 PE
# B10: Ab0228 (antibody, IgG4, V domains shown)
# VH: not shown
# VL: B1 VL with Y49D, D50A
# notes: IgG4 PE
# B11: Ab0221 (antibody, IgG4, V domains shown)
# VH: not shown
# VL: B1 VL with N25A, Y49D
# notes: IgG4 PE
# B12: Ab0219 (antibody, IgG4, V domains shown)
# VH: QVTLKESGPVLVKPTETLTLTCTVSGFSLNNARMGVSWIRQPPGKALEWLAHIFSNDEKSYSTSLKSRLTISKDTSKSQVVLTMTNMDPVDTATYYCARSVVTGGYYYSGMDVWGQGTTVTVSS
# VL: B1 VL with Y49D, N93E
# notes: IgG4 PE
# B13: Ab0222 (antibody, IgG4, V domains shown)
# VH: not shown
# VL: B1 VL with N25T, Y49D
# notes: IgG4 PE
# B14: Ab0191 (antibody, IgG4, V domains shown)
# VH: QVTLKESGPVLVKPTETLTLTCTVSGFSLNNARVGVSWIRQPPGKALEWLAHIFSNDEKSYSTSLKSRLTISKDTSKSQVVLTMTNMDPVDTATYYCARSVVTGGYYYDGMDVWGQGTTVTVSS
# VL: B1 VL with Y49D, N93E
# notes: IgG4 PE
# B15: Ab0229 (antibody, IgG4, V domains shown)
# VH: not shown
# VL: B1 VL with Y49D, D50H
# notes: IgG4 PE
# B16: Ab0205 (antibody, IgG4, V domains shown)
# VH: B4 VH
# VL: B1 VL with Y49D, N93E
# notes: IgG4 PE
# B17: Ab0197 (antibody, IgG4, V domains shown)
# VH: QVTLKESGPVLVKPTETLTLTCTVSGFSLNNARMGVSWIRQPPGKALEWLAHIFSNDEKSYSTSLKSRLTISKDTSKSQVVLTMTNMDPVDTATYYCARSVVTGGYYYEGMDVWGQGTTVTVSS
# VL: B1 VL with Y49D, D91T
# notes: IgG4 PE
# B18: Ab0203 (antibody, IgG4, V domains shown)
# VH: B4 VH
# VL: B1 VL with Y49D, D50E
# notes: IgG4 PE
# B19: Ab0298 (antibody, IgG4, V domains shown)
# VH: B4 VH
# VL: B1 VL with N25S, D50E
# notes: IgG4 PE
# B20: Ab0297 (antibody, IgG4, V domains shown)
# VH: B4 VH
# VL: B1 VL with D50E
# notes: IgG4 PE
# B21: Ab0194 (antibody, IgG4, V domains shown)
# VH: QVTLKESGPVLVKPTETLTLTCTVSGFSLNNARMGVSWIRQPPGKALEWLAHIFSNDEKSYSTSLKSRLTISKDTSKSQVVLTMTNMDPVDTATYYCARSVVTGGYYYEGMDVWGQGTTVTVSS
# VL: B1 VL with N25S, Y49D
# notes: IgG4 PE
# B22: Ab0189 (antibody, IgG4, V domains shown)
# VH: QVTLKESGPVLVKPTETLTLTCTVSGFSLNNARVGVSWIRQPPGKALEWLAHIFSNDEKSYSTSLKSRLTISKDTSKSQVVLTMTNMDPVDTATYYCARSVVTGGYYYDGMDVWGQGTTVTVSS
# VL: B1 VL with Y49D, D50E
# notes: IgG4 PE
# B23: Ab0202 (antibody, IgG4, V domains shown)
# VH: B4 VH
# VL: B1 VL
# notes: IgG4 PE
# B24: Ab0227 (antibody, IgG4, V domains shown)
# VH: not shown
# VL: B1 VL with Y49D, D50Y
# notes: IgG4 PE
# B25: Ab0190 (antibody, IgG4, V domains shown)
# VH: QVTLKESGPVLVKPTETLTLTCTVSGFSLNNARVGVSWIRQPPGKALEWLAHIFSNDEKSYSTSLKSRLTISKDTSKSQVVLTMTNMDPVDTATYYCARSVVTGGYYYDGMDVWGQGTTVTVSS
# VL: B1 VL with Y49D, D91T
# notes: IgG4 PE
# B26: Ab0296 (antibody, IgG4, V domains shown)
# VH: B4 VH
# VL: B1 VL with N25S, Y49D, D50E
# notes: IgG4 PE
# B27: Ab0212 (antibody, IgG4, V domains shown)
# VH: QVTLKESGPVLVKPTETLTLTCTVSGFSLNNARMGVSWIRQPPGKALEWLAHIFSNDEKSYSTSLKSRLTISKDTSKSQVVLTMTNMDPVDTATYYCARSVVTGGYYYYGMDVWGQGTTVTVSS
# VL: B1 VL with Y49D, N93E
# notes: IgG4 PE
# B28: Ab0201 (antibody, IgG4, V domains shown)
# VH: B4 VH
# VL: B1 VL with N25S, Y49D
# notes: IgG4 PE
# B29: Ab0218 (antibody, IgG4, V domains shown)
# VH: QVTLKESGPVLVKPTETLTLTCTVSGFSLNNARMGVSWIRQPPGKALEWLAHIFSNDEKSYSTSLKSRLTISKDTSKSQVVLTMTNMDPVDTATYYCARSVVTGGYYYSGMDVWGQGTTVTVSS
# VL: B1 VL with Y49D, D91T
# notes: IgG4 PE
# B30: Ab0236 (antibody, IgG4, V domains shown)
# VH: not shown
# VL: B1 VL with Y49D, N93A
# notes: IgG4 PE
# B31: Ab0230 (antibody, IgG4, V domains shown)
# VH: not shown
# VL: B1 VL with Y49D, D50S
# notes: IgG4 PE
# B32: Ab0195 (antibody, IgG4, V domains shown)
# VH: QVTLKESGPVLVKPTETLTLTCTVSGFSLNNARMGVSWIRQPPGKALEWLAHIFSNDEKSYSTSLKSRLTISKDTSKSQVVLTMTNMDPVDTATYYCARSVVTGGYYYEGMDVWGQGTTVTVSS
# VL: B1 VL
# notes: IgG4 PE
# B33: Ab0208 (antibody, IgG4, V domains shown)
# VH: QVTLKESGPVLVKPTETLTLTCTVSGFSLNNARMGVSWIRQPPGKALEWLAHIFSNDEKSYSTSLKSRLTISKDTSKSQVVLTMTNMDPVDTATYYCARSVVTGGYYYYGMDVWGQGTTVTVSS
# VL: B1 VL with N25S, Y49D
# notes: IgG4 PE
# B34: Ab0198 (antibody, IgG4, V domains shown)
# VH: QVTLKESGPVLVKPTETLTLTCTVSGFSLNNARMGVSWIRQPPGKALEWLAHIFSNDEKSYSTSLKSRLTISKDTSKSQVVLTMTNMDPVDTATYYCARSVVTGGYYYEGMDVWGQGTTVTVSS
# VL: B1 VL with Y49D, N93E
# notes: IgG4 PE
# B35: Ab0235 (antibody, IgG4, V domains shown)
# VH: not shown
# VL: B1 VL with Y49D, N93D
# notes: IgG4 PE
# B36: Ab0216 (antibody, IgG4, V domains shown)
# VH: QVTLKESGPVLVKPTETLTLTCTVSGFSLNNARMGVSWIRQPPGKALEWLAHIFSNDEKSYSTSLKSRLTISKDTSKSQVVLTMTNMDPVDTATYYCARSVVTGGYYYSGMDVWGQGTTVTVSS
# VL: B1 VL
# notes: IgG4 PE
# B37: Ab0295 (antibody, IgG4, V domains shown)
# VH: B4 VH
# VL: B1 VL with N25S
# notes: IgG4 PE
# Experiments:
# [1] = biological target: human FGFR1c + KLB receptor complex on HEK293 iLite FGF21 reporter cells (human, UniProt P11362 22-822; Q86Z14 1-1044); assay: cell-based or functional assay
# human beta-Klotho (KLB) = biological target: T1, human beta-Klotho (KLB); assay: SPR;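 note: Anti-KLB antibodies captured on anti-human Fc CM5 chip, KLB injected as analyte, 180 s association and 1800 s dissociation, fitted to 1:1 binding model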
# Sequence of human FGFR1c + KLB receptor complex on HEK293 iLite FGF21 reporter cells (P11362 22-822, chain 1 of 2): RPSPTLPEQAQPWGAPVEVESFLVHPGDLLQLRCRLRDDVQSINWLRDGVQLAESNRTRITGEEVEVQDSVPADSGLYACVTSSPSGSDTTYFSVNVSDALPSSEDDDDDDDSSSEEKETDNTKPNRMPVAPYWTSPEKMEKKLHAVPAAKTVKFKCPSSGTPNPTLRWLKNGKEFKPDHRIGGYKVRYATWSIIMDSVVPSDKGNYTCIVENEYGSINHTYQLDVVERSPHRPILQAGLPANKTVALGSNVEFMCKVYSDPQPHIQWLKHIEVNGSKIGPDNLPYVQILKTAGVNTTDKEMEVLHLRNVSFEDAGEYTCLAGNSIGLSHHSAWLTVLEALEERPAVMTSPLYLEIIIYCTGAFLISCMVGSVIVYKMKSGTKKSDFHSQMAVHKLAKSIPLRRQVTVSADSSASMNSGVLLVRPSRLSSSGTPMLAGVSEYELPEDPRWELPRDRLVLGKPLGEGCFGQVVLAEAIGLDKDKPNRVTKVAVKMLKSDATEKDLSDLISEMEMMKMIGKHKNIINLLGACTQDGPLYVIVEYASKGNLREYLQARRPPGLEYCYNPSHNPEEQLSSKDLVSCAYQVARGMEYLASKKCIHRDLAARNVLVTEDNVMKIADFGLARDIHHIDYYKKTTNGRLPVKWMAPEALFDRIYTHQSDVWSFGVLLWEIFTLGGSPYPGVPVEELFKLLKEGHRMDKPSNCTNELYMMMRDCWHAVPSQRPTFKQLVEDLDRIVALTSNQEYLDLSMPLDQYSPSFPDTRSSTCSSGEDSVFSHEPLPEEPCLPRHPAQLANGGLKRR
# Sequence of human FGFR1c + KLB receptor complex on HEK293 iLite FGF21 reporter cells (Q86Z14 whole entry, chain 2 of 2): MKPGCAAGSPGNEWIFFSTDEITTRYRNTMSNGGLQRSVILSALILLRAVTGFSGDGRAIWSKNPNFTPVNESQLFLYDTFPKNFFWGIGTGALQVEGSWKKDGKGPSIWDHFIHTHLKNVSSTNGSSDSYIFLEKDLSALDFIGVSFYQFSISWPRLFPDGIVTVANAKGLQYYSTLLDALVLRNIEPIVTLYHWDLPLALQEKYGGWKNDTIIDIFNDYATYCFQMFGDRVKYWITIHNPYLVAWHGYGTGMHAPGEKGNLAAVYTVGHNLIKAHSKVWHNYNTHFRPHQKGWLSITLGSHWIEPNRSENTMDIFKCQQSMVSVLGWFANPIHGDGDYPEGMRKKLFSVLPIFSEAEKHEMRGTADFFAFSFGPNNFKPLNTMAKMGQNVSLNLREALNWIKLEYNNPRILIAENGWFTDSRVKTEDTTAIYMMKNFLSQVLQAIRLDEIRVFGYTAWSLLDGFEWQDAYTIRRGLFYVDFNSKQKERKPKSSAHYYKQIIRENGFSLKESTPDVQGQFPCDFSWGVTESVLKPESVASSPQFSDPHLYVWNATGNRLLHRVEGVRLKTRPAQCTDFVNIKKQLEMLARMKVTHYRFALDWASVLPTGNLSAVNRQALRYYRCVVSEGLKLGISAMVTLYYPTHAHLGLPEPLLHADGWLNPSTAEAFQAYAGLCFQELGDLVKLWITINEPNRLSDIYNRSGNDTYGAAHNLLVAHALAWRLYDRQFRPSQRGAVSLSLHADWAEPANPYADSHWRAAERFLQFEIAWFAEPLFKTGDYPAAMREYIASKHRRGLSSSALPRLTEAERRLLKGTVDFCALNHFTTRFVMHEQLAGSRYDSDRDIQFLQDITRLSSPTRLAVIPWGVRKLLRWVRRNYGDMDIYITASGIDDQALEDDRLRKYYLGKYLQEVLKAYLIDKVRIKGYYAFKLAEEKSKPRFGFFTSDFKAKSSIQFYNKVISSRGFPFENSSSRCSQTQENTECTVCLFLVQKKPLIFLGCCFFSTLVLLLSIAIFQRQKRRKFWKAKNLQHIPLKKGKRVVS
Binder,EC50 [1] [nM],Emax [1] [%],koff (human beta-Klotho (KLB)) [s⁻¹]
B1,0.06,2410,0.00084
B2,0.12,2050,0.00194
B3,0.11,1970,0.00101
B4,0.04,1420,0.00133
B5,0.09,1790,0.00104
B6,0.06,2050,0.00024
B7,0.04,1840,0.00011
B8,0.04,2000,0.00125
B9,0.07,1970,0.002
B10,0.04,1380,0.000258
B11,0.09,2000,0.00011
B12,0.02,2490,0.000915
B13,0.13,2020,0.000309
B14,0.04,2470,0.000144
B15,0.04,1440,0.000394
B16,0.02,2120,0.000334
B17,0.08,2000,0.00167
B18,0.05,1600,0.00151
B19,0.08,1180,0.0016

Binder,EC50 [1] [nM],Emax [1] [%],koff (human beta-Klotho (KLB)) [s⁻¹]
B20,0.07,1210,0.00156
B21,0.06,2550,0.000402
B22,0.06,2760,0.000387
B23,0.07,1510,0.00161
B24,0.06,2340,0.000214
B25,0.05,2370,0.000195
B26,0.06,1290,0.00137
B27,0.07,1640,0.00185
B28,0.05,2490,0.000336
B29,2.13,1060,0.00668
B30,0.05,2190,0.000151
B31,0.06,1610,0.000111
B32,0.14,2030,0.00267
B33,0.27,1270,0.0021
B34,0.05,2770,0.000346
B35,0.06,2090,0.000153
B36,0.27,1180,0.00984
B37,0.07,1310,0.00157
